The text below walks through data of the NTF2 design screens of Basanta et al. (2020).

The data set in a line: protease stability score; higher = more stable; yeast display proteolysis, trypsin and chymotrypsin.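 Further: log10 excess protease needed over predicted unfolded state with 0 meaning unfolded.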
As to “DEEDDARKAAEALKAFFKGDPEKFRDLADEDVQVRIGDNVYTGRTEANEAVENFKRQVDHVEFKDLNNRGNKVFADVVVRFNGEDIRVTLYAEVHNGKLKYMQVDPTAQKQLEK”, the protease stability score turned out to be 0.65.
For “DETDKAHEFMRKMKRALDQNDPDKLMDLFDPNAKVKVGEKKIHGRERISNDLQRHAHNADHIHMEIQDMKVSGDKINITFRVTSVVNGNTRSNRVLIRARIDNGHIKAVDVQQK” the value was 0.855; for “DEDQVEVMRELWRAYEDGADDQLKKLVDPNARFEVGDKHIEGREEYARDMQRQRKEIRVHYREISIENREGRLHIDYIYQRTHNGQPQTVRQVVEVDIKNGVVQRQRVQDVS”, 0.474.
As for “DEKELNDLKRVVRHGDEDRLEELMDEDVRMKVGNKEISGRSHAVKVMKKLNEKADHIEIKDIKISGEKVVVDLVFEVNGTKIKMRLIIVVRNGKIKHAQIEVTDEEVEDNLHKFLD”, the figure is 0.972; as for “DERDQNRKAEEAAHALRDGDERRISEMFDKNAHATVGDQTYTGREEIMKWVHDIKKRYDHVTLHDVKVHNGRADLDMVFNHNGKEDRIRIDIQFQGDKIKHVSVRSK”, 1.69; as for “DETEAKKNVEVVEQNDWDTFEDQVDENAKMKVGDKEIHGREQFSEFADNMKKNADHVEVKSVDRRGDEINIEMVVSVNGKRVTYVVQFVVNNGKIHDVQFDARSEDDERFLKEVQS”, 0.619.
“DETAVKVIHKVVEAINTNNPKQVMKNMDKDVHITVGDKEYEGKEEFAKQVERDLREQRVDIDIKRLNVHNGKVHVKFTAQQQINGKPISYKATARAEVQNGKVQHMEIRVPEELQRKRES”: the protease stability score was -0.272.
“DREEAKKVAEKAAKYFQNWNVEQLLKLIPDGGKYRIADEERHGPDVIKEVVEKQQRMGLEVEVKEVHAEGDTVHTVLDYRLGDTTATVHIQAKVQGGRIDEVQVDIPEEAQKMLKQG” yielded a protease stability score of 0.401.
As for “DSRAQSLFHKWMDALRTGDRRKLSELADPNVSITYGDKTIHGREENMKEAHRLVNQMRVDFDIKSIENEPNRVIIRMRVEYDVNGRPFDDEVVVELRAKGDHIKEVRVRIDPRQVKELSG”, the figure is 0.907; as for “DEDNTDRARKFFEALRTNDPDQVSSLLDPNARVHIGDRVINGREEVRTHIKHLTDKIRFQIQKVTVHVSNGRISAHVTFEVEVNGRPDRFNMEVVARVENGKIKVMQFKISEDQMQKLRN”, 1.39.
As for “DHETQNDLATEIVRVYKHGNPDDWSKLVDPNARVVYGDKEIHGREDAMSFMKKLRNQADSIKVKDYKVKNGRVDVVVIIVVNGRHATLQFTIQFHNGKATDVKFDPKQWHELQK”, the figure is 1.28; as for “DEHVIKNFLRVVRTNNEDSFVKMADKDAEITIGDKRYHGREDVHKAAKQRKDAFDEVSIVDYRIDGDKIKVRQSATVNGKKLDFEYTMVLHNGRVRTLDMKARDEEMERRLREIID”, 0.023; as for “DENIKRTMSDFLHAVRDGDEDKLFKLADPNARMKYGDKDVHGMEEIVHQIKRLRRDASVDIHIKRVEVDGNRVDIKLEVVVNVNGRPQRYRFEIKVRFHNGRINALENNIDEDQLRKIES”, 1.21.
Regarding “DEEKQKEYADRFNEILKSGNEDEFRKMADEDVTAQYGDKEVHGREEVTKTMSRFLRTVDKIKVDSVEVHNGRVIIHFVVRVNGQDQRVVMEFKVHNGKIKELVMRSQ”, the protease stability score was found to be 1.51.
For “DEEAKEVLERWHTAIKHGDPNLAKEMADKDVRINVGDKSFSGMEQNAKDMHRERNELEYEILSVRFEVHGDKVKVEFHATRNNNGNPDTKKFDLTATASNGKATRVTLQSSG”, the protease stability score is -0.538.
As for “DEEDEARTMADRIRHALENGDEQKFAEQADPNASVRIGDRTWHGRRQISNRLKEERERADHVELEIKSIKLHGDRVKIDFVLEQDINGRHETTQLTMTAELHNGNVRFKMMKEK”, the figure is -0.332; as for “DEDDLERKDEEFQRLMKTGNFEELAQQADKDVRVQIGDKQLHGRRQIKKYQEEMQRKADHFDVKRVDIQGDTVDAVIENRHNGHHQVVRIQVNMHNGTIKEVTIHSS”, -0.02.
As for “DEVEKAKNLFDRLVRAFKNNNWKQFSDLADEDVRYVVGDKEWHGREQADEMFREMVEEIDHYDIHVKDIKFHNGKVDLKATASFSVNGKTHRFTVEWRVQMHNGHLRVKQVILK”, the protease stability score was 1.25.
In the case of “DEESLAKEFIKHVNDNADTGNPDDMAELFDPNARIEVGDKKYDGHKDITKLNEELNREADHIKYTINSVKRDGDFVRLDIEVRMDVNGKDVNHRYRANVAVTNGRLVVRSLTSS”, the protease stability score was found to be 0.891.
For “DEELLRNLEEVFKKNNFSTLANLADKDATLIVGDKVYKGKQQVRDWANELDERIDHVSIHSIDNQGDTMVARMVLNVDGVNAEFTLSVEISNGRVQVISLKVTDDEVKDQISKMES” the value was 0.953; for “DEDAHKRYEHIERVMEHGDESTLEQLMDPNARIQVGDKEVRGMNKWAKEVAEEIRQMEVRVDIKSVDVRGNRVRVEAKYTVNVNGRPKTATKEVVLDFENGRVSYVQVRFDPDRKKSIDQ”, 0.443.
For “DEDANRLVEEYIRAVEKGDEDQARRMMDENVTVKVGDKTVHGHDHQAREMNKVKKQARIEIKDYRLDNSNGRVVIRMTFIADRNGKPITFDIVIIINFHNGRAKNMHVHISEEELKRLEG” the value was 1.06; for “DEKQLKKAADRMVKAMETGDPQQINRMADENVRVEVGDKRISGEEDINRWLKELSDQADHARVKSIDASGNTVRVEMTIVVNGRETKLTIHVHFENGTAHHVRFQKS”, 0.223.
As for “DEEALKLLESLMEAVKTNNEERLKSLVDPNAHFQYGDKTLHGMEDWAKEVVRRMREIHVEWEWHTWSVHNGQIVVDVHARLEINGRPVHWKERIIVELENGKVKSMVFQISEEEKKHIDG”, the figure is 1.6; as for “EEKQDTRLEEFVSAVLKGDEQEAVDLADPNADMHIGEWHVRGREQIRKFIDQLRKRIRVQVDEMHVDNQGENVTVRATFVLDHNGVPMEFEIEYRLVVDNGRLKSVHARVPEEVKNRRRR”, 0.294; as for “DERKRAEKALNEWQRMWKYGNEEDFQKLADENVHFKYGDKTYRGREKMRKWVKEVLDSVDHVEVRIVSLHVRGDKITVRIRIYMEHNGRRTSFEYTMQLVDNNGHIVIVRFEQN”, 0.203.
In turn, “DDHAIRLLHEMIKAERTNDPDKLKEQMDPNAKIKYGDKTVHGRNDAVRYLEETVEHARVSIQVKSIKDQGDQAIADATITVNINGRPQQFKITIVAKFHNGRIKEVEIRVSEEQERQMES” had a protease stability score of 0.785.
“DERKQHEVAEKVAKNFVDGNPSEFVKNMDPNAEVVIGDKTVTGREDIHRLVKDFHDKIDHIELKDLKVKNGRIEIIFQADNNGHKRQYRADVKANNGRMTTFEVREQ”: the protease stability score was found to be 0.927.
Consider “DERDQVKRAKEYLHAFNQGDPDEADKNADPNAKVDVGDHRYHGREEFDKAVKTFKDQVDHIEVKDVKAQGNHASARVTADVNGHTLDMIITVELHNGKVKSYVVKKK”, for which the protease stability score was -0.175.
Turning to “DETKDTEAAERYLENFKTGDPKKLANQFDKNAKVVVGDNEIHGREELQRNNESFVKRVDHIDLQTVDMRGDKFRYQVVIKINGNSVIVNYSIVMHNGKFERNHVDPKDMDRLKQ”, the protease stability score is 0.363.
Sequence “DENTEAQRFADNFNKLMNTGDEDTLNKLFDENAKVEVGDHRLHGREKLTKLAETNKQRFDHVKVDVDDIKVDNGTVQMRAVVIVYHNGRHHSVELEVVAQNHNGHARVKRMRVG” yielded a protease stability score of 0.553.
“DDTHTAEEWFHHLMNILKTNDPDRFANQFDKDARLHYGDTEVRGRENMIEFLRHMVKRIDHQSYTLLQIRVSNGRVEIKVRASMKYDGRVIDDNVEFEADLRGDKIKARQVNIG” yielded a protease stability score of 0.564.
Sequence “DERQLKILVRILNAIHEGDPDTVKQLVDPNARVVIGDKVLHGMDEVRDTLHKWQEEQEVDLKDYRDNVHNGKADITAKAKVNQDGTPDHIRFKATAEFRNGRAKEVRINHDK” gave a protease stability score of 1.09.
Sequence “EEEVVKEVTKAAKTGNFEKLLRLADPNVEMRIGDKTFHGRTELKDALRDIKQNADHIELKSLDSHNGRLEVDLVVNVNGKDVRFILRVSVHNGRITQMSVESRDTDFKKVLDEMLG” had a protease stability score of 1.91.
